Results on 22 sequences are retold here after the DeepSol protein solubility set.

The nature of this data set: soluble on expression in E. coli; label from the status in PepcDB or PDB records.
Turning to “MSLATTLVLGGGYAGMRAVKFLQKSLPTEDEIILVDQTPTHTEKTNLHEVAAGTIAPDRITYQIPDIIGKRVQFVQATVKNVDIEQKQVTFEDHPEMTYDYLVLALGFQSETFGVAGADENALPMDDLATSQAVYEHLEERFKAYRTSKDKNDLKIAVCGAGFTGIELLGELTQTLPRLQAKYQTPAAKLVCLERMPSILPMFTQELRDYALKFMEKNNVEMRLGAVIEAIKPGAVVYSDADKNEHEFTANTIIWTVGVSGSHVIADSGFDQRRNRVVVKPDLSLEGHPEVFIVGDVAAVMDPESNRPYPTTAQIALAAGEQAAKNIGALRHNQATATFHYESSGTVASLSDRDGIGEIFSSNKPVHGYAASALKKIITDRSLLESAHLGTVFSKGRFDLYHEGHHHHHH”, the “soluble on expression in E. coli” value is listed as “soluble”.
The result for “GMQPETSAQYQHRFSQAIRGGEAADGLPQDRLNVYIRLIRNNIHSFIDRCYTETRQYFDSKEWSRLKEGFVRDARAQTPYFQEIPGEFLQYCQSLPLSDGILALMDFEYTQLLAEVAQIPDIPDIHYSNDSKYTPSPAAFIRQYRYDVTHDLQEAETALLIWRNAEDDVMYQTLDGFDMMLLEIMGSSALSFDTLAQTLVEFMPKADNWKNILLGKWSGWIEQRIIIPSLSAISENMEGNSPSQNHLSA” reads “soluble”; that for “MSYTAEMIIRLREEKKEMRNRDFAISIGISEAELIAAYCTIGKAKRLKTDIAVLLENAPQLGTVMALTRNEHAVHEITGCFEKIVQNQHVLLTLGEIDLRIFAKQWKFCFEYEAIVLGKPTKSLHFFDQNGVAIFKLYSKDTTNMAEWNKLVDKLLHEDQSPVLDIPPKAIPNKRDIVELNVEEFRDRWRKMTDVHQLHGIISELKINRHDAVKYVGNEFAHELKREAIEIMLNQVAQQEVPIMCFVGNKGCIQIFSGQIKNIKQMGPWLNVLDKKFHLHLLIPGIKNVWCVRKPTSDGHVTSLEVFDENDEMIIQFFGMRKEGQKEREDWRSLLNSLPQSHAVAVA”, “not soluble”.
The result for “AMACWAQSQGYNCCNNPSSTKVEYTDASGQWGVQNGQWCGIDYSYGQNQGNESCTGNGSYPCCNTCQATYTDGDGDWAFENGNWCGIKNSCKQQPQNNNQ” reads “soluble”; that for “MSVDSLPTLFQWARDNLLKEEALAISALEELPIHLFPEMFKVAFTDRHTKVLIAMVSAWPFPCLPVGTLIEDPHLETLKAVLDGLNVLVTGKVHSSRCKLRVLDLRRNVHHDFWSIQTGSHEDNCPAQIVAQKQPVETCPNPRREIPFMVVTDFELTQESFDEWTIYLMQWIQERKSSIHLCCRKLNSCASPVSNVIEIFKLVDLNCILELQLSQWWPEVLEELDPYLEGMNNLHTLMLEGLKPFRFTACEEDQEDEWQSTLPSLLSNFGSLQNLYLNDIYLLEDSLDKWLGCLKTPLKTLSITDCPRLLQSDFECLPNCPNICKLKHLNLNALFLSDVGYEIPGLILEKVTSTLQILELERCGMTDPHFKALMPALSKCSQLLKVSFCHNDISLRVLKTLLCHTAKLSQLTQELYPAPQECYEDYKILKDRFKKLCPELLNILKAKRQPKKVSFTTQTCLKCLHSCHYYYNLEATDCLCQCICQ”, “not soluble”; that for “GSHMTRTRMENELIVSKNMQNIIIAGNGPSLKNINYKRLPREYDVFRCNQFYFEDKYYLGKKIKAVFFNPGVFLQQYHTAKQLILKNEYEIKNIFCSTFNLPFIESNDFLHQFYNFFPDAKLGYEVIENLKEFYAYIKYNEIYFNKRITSGVYMCAIAIALGYKTIYLCGIDFYEGDVIYPFEAMSTNIKTIFPGIKDFKPSNCHSKEYDIEALKLLKSIYKVNIYALCDDSILANHFPLSININNNFTLENKHNNSINDILLTDNTPGVSFYKNQLKADNKIMLNFY”, “soluble”.
As to “GAHMSVIKPEMKIKLCMRGTVNGHNFVIEGEGKGNPYEGTQILDLNVTEGAPLPFAYDILTTVFQYGNRAFTKYPADIQDYFKQTFPEGYHWERSMTYEDQGICTATSNISMRGDCFFYDIRFDGTNFPPNGPVMQKKTLKWEPSTEKMYVEDGVLKGDVNMRLLLEGGGHYRCDFKTTYKAKKEVRLPDAHKIDHRIEILKHDKDYNKVKLYENAVARYSMLPSQAK”, the “soluble on expression in E. coli” value is given as “soluble”.
The result for “MGSDKIHHHHHHMGDKVLKIGSVHQCNCCMGSKTLHPLVSVIDLSKADLSSHTDFKFGFYTILLSECKCEAYRYGHQYYDFSDGTLLCLTPGESISMKDSDNTRPSKGWILAFHPDLICGTALGANIRDYTFFSYRPEEALHVSLREKQVILELLDKINEELQRCIDCYSQKIISKYIELLLDYCERFYERQFITRNEANKKIIERFDRLLDDHFNTIQSQSSDLPTIEECVRVLRLSPAYFNDLLEYETGKSYKEYLQFKRFEIAKEWLINTDKTLSQIAQELGFRNPQYFSRLFKKITGCLPNDFKMPN” reads “not soluble”; that for “MGGDRAPDEILKGALLASKEVEGEIVLIGPEEIVKNKGLPFVSASEIVKMDDPPLEVLRKKNSSMHMGLKLLSEGKVDAFVSAGATGPLFLGATSIVGKLEGIERPALGVAVPSLKGATVLIDAGANAKVRPEHLVDFAFMGIAYSKVLGAENPRVGLLNMGSEENKGPDDIKRAYQLLKEFLGDTFFGNVEGHDINLGTVDVVVADGFSGNVALKTMEGTAKLVTSVLKESIKDGGFLSLLGALLMKRSFDKMKEKLDPRSYGGTFILGVKGIVVKAHGSSDAKAIKHAIKVAEKGIRVNIVQEIERGISHVRNSGDGR”, “soluble”; that for “MSGTEEAILGGRDSHPAAGGGSVLCFGQCQYTAEEYQAIQKALRQRLGPEYISSRMAGGGQKVCYIEGHRVINLANEMFGYNGWAHSITQQNVDFVDLNNGKFYVGVCAFVRVQLKDGSYHEDVGYGVSEGLKSKALSLEKARKEAVTDGLKRALRSFGNALGNCILDKDYLRSLNKLPRQLPLEVDLTKAKRQDLEPSVEEARYNSCRPNM”, “soluble”.
The result for “MGHHHHHHSHKCNAGFFHTLSGECVPCDCNGNSNECLDGSGYCVTTDGEDPGFSASALSFILSSQGAREARAPT” reads “not soluble”; that for “MLDLFADAEPWQEPLAAGAVILRRFAFNAAEQLIRDINDVASQSPFRQMVAPGGYTMSVAMTNCGHLGWTTHRQGYLYSPIDPQTNKPWPAMPQSFHDLCQRAATAAGYPDFQPDACLINRYAPGAKLSLHQDKDEPDLRAPIVSVSLGLPAIFQFGGLKRNDPLKRLLLEHGDVVVWGGESRLFYHGIQPLKAGFHPLTTDCRYNLTFRQAGKKE”, “not soluble”.
“MGSDKIHHHHHHMTLLDKDLVSIQEVRTLVRRSKVAQEKLSKMSQEQIDKIVKAVVDAAFNNATKLAKMANEETGFGKWEDKVIKNTFASMGVYETLKNTKTIGIIGEDKEANTIDIATPVGVVAGLIPSTNPTSTVIYKTIISLKAGNTIVFSPHPNAKNCILETVNIISDAAIKAGAPEDSILCITNPSIVGTNELMKHKDTNLILATGGEAMVRAAYSSGTPAIGVGPGNGPAFIDKSANVKLAIKRIIDSKTFDNGVICASEQSIVIEKSMEETVLKELKNQGAYVLNEEESERLAKFILRANGTMNPQIVGKSVEVIANLADLTNVPKNTKVLVARENKVGHNVAYSREKLTPILAFYVEENVEAIMNRCREILLNEGAGHTFSMHVNDEELVKRFALNMPVSRILVNTPSALGGIGASTNLVPALTLGCGAIGGSSTSNNIGPLDLINVKRVAYGIKEIEELGRDKSQVEKSMFDSMDKEELINLLVQKLFKELA”: the “soluble on expression in E. coli” value was “not soluble”.
Regarding “AIALVGPAPTTDGSAENTLNEKRLVHGSIAFWLGPRAPQTKTHRWTVYVRGARDPLEDLSLYIQKVEFVLHESFADPVRVVKEPPFCLTEHGWGEFEVIIRLFPISDPDKPVEMYHPLRLFPSVGQELTEKPVVSEHLDVLVFSQPAPEVERALHRSDVARMPSDCWGDLMPLFGGDLHQVEEEDLRKVQQARERVRQQIQATRLQYEALTAELARARTHALHRELS”, the “soluble on expression in E. coli” value is “soluble”.
To “MAHHHHHHMFAFLNVAFMAAIRRKLKELKPPARRQSHRCAPEVYSQEGPTRHYFLPSVERIDKKTCISHRLLYIPEVENFPLVDGFFFVKSNPMTLVGLRMTTAGEHHTAASTVRQFTECLAAYFNGWEELSREMSWEMIYVQHADSTPMNDWQRCDVDNSNNLTEEGREIAAFWNEKVRQYQVSI” belongs “not soluble”; to “RKPSFLALPGHLVKSEETVILQCWSDVMFEHFLLHREGKFNNTLHLIGEHHDGVSKANFSIGPMMPVLAGTYRCYGSVPHSPYQLSAPSDPLDMVIIGLYEKPSLSAQPGPTVQAGENVTLSCSSRSSYDMYHLSREGEAHERRLPAVRSINGTFQADFPLGPATHGGTYRCFGSFRDAPYEWSNSSDPLLVSVT”, “soluble”.
The result for “MCSGYFELKQMFPIIRKIFVEKSNCSSNTHHSKRSIGETAGLKTGERIVGVNGQLIYPTNTHKEVVPLMKQNAMKTTLLEVH” reads “not soluble”.
To “MGEIQTLNEQHSVGKPVIRLSGISKSFDGKEIIGNLNLDVNHGEFLTILGPSGCGKTTVLRMIAGFETADQGQILLDDQDVTQVPAEQRHVNTVFQSYALFPHMTVFENVAFGLRMQKVPQSEIEPRVMEALRMVRLAEMAQRKPHQLSGGQQQRIAIARAVVNKPKVLLLDESLSALDYKLRKQMQSELKQLQRQLGITFIFVTHDQEEALSMSDRIIVMRSGKIEQDGSPREIYEDPKNLFVARFIGEINVFQATTIDRIDEKRIRVDIEGIESIVYYEDEVKAGDKLQVLLRPEDLRIEEIKESEEKGIVGHVTDRTYKGMTLESVVELESGMCVMVSEFFNEDDPDVDHSIGQKVAVTWVESWEVVLNDEQKA” belongs “not soluble”.
For the sequence “YDPSKDPSSSLARRNLIIGLMEKAGFITHAQAVRAKATPLVLHYTPVTQQGLAPYFTEYIRQTIKSSSMLEGVNVYRDGL”, the “soluble on expression in E. coli” value is “not soluble”.
On to “MILSMTGFGKHTIQFADKKITATIKSLNSKQFDLSTKISSRYRDRELPLRALVSADIGRGKVDFSLFLEESGSTDVVSQIFDTEKMSSYFFQLKEFGEKMGVEVPAGGWFEQLLRIPGVIQIDEDKEEEIPEDEWAVVIETCRRALDQLIGFREQEGAMLEQVFTEKISNISSLLLQIEQYEPDRIQRIKERIEENLTKISEKDYDKNRFEQEMIYYIEKLDVNEEKHRLRNHLSYFLQTMQGEPGQGKKLSFIAQEIGREINTLGSKSNHVEMQQIVVQMKDELEQIKEQVLNVL”, for which the “soluble on expression in E. coli” value is listed as “not soluble”.
To “MSLTSPLAYSYTHTGTEATTGYFSCEPPQDMTMEQALAWLAVHPMDDFMHRHLLRRLGEMSPEELAKLGPTLQASPVLEALFCELCALAPEGSPLRATLTEILEGLSTTSEASPAAIAERLGAYTPLPYIGWAALPDRELHQAWCRLFSDNIQNHRMLPHPEDNDLAPLYADEEPATRPEPPITAVHARLAAAPGTPWSRPPAHETAQKALEVLVENDIIAGVEMRHEASLSPIALLRRWRLDLGVRNGGLAYTLRGEATTYGRGLSLADARASYAMEMVERASSYANVGPEGILGLTRPQPLRKARHSELVAEGLAVLDPNAIPLEVPYRDQPIHWLTGHASEANGNAPTLVPAQMVYLFCNLDEVALFTSSSSTGLASGNTLAEAKVAALTEILERDAEATTPYDRARCFRPATDDPLLRSLLEDYAARGIQIQMQDMTTEWGIPCYTCFVMSSRGKLARGTGAGLDGRRAAISALTETPYPYPRGGASGPGLRGLPERKLEDLPSFTLESPERNLALLEETLASTGHHPVYVELTRADLGLPVVKALIPGLELTADFDDCTRISRRLYRNYLRMGYDEGHHHHHH” belongs “soluble”; to “MFWVFLVRHGEAYPEEVDPQRPLTEKGRKDTEKIAKALKNFGVKPELIYTSPKLRAKQTAKIIANILGVEKIRETELLLPNTDPKETSKLIDGKNVVLCGHLPNLARLFSLLYLSEDNERRVNLSTSGALVLKWKDFWVLELLLEPSVL”, “not soluble”.
